Measured values as given in patent US20100015126A1, “Methods of Binding of Cross-Beta Structures By Chaperones” (priority 2006, published 2010).

What was measured:
human BiP = molecular target: T1, human BiP (Homo sapiens, UniProt P11021); experiment: ELISA: binding of BiP-FLAG-His to immobilized (misfolded) protein ligands; details: ligands coated at 5 μg/ml; 6BB peptides and oxLDL 50 μg/ml
T1 construct: The human BiP gene except the signal peptide encoding region was obtained from Geneart (Germany); linker […]; made in house; host or cells: HEK 293E cells, transient transfection, PABC674 vector; secreted into the medium
Procedure, shortened: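 Ligands were coated at 5 μg/ml (50 μg/ml for 6BB# peptides and oxLDL) in 50 mM NaHCO3 pH 9.6, blocked, then incubated in triplicate with BiP-FLAG-His dilution series for 1 h at room temperature. Bound BiP was detected with peroxidase anti-FLAG M2 and TMB, stopped after 5 min and read at 450 nm. Buffer-only and chaperone-omitted background signals were subtracted.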

factor XII in plasma = molecular target: T2, factor XII in plasma (Homo sapiens, UniProt P00748); experiment: Factor XII activation assay (direct, substrate S-2222); format: biochemical; details: chromogenic substrate S-2222
T2 construct: from tissue; host or cells: plasma
T2 sequence (P00748 20-615): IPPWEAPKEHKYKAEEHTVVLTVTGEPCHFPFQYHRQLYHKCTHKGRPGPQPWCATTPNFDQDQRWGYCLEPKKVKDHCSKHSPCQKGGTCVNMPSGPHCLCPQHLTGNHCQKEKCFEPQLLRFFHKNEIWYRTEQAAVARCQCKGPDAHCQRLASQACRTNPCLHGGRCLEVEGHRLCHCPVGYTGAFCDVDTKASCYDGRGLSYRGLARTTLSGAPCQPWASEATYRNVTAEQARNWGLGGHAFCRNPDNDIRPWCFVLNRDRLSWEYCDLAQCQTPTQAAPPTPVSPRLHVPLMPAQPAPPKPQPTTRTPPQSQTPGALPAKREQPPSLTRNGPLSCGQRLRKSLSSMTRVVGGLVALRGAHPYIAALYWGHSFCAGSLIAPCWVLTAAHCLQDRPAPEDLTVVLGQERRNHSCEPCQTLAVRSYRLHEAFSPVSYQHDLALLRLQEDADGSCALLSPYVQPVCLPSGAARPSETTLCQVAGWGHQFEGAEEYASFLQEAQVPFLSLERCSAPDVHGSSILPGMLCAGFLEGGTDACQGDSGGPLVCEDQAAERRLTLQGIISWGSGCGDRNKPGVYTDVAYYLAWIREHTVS
Description: Alternatively, activation of factor XII was assessed directly by omitting prekallikrein and using a factor XII chromogenic substrate, S-2222 (Chromogenix, Italy).

HUVECs = experiment: Adhesion of HUVECs to immobilized misfolded proteins under influence of BiP (LDH read-out); format: cell-based, human; details: BiP approximately 200 μg/ml
Description: HUVECs are primary endothelial cells (ECs), isolated from umbilical cords using 0.1% collagenase (Sigma, C0130, 100 mg, dissolved in 100 ml M199 medium supplemented with 10% FCS (Gibco 10106-169) and Penicillin-Streptomycin (P/S, Gibco, 15140-122)), according to widespread used standard procedures known to a person skilled in the art. HUVECs have the typical features of ECs, e.g. cobblestone morphology and von Willebrand factor storage in Weibel-Palade bodies. HUVECs can regularly be cultured up to passage 5; beyond passage 5 HUVECs loose typical EC markers. The isolation is described here in brief. The umbilical cord is washed for less than 3 minutes in ethanol and subsequently with PBS. The vein is connected to canules and flushed with 10 ml PBS, followed by loading with the 0.1% collagenase solution. After a 15 minute-incubation at 37° C., the detached endothelial cell suspension is recovered by flushing the vein with 10 ml medium which is subsequently added to the collagenase solution. The EC suspension is centrifuged for 5 minutes at room temperature, at low g-force. Supernatant is discarded and the cell pellet is resuspended in 5 ml ‘rich medium’ (EGM-2; Endothelial basal medium (EBM-2, Cambrex, CC-3156) and Singlequots containing supplements for endothelial cells (Cambrex, CC-4176)). Cells (passage 0, P0) are seeded in a culture flask coated with 0.5% gelatin (Sigma, G1393). To facilitate the adhesion of the endothelial cells, human fibronectin is added to the cell culture at a final concentration of 2 μg/ml. EC's are cultured at 37° C., at 5% CO2. The cell culture medium is refreshed every 2-3 days up to when the cells grow to confluency. Then, with the addition of trypsin-EDTA, the cells are detached from the flask, centrifuged at low g-force, resuspended in rich medium and seeded in larger 0.5% gelatin-precoated cell culture flasks.
In 96-wells plates (Immulon high-binding plates, Thermo Labsystems 3355) proteins, i.e. BSA-AGE, control BSA, IgIV Gammagard, crossbeta dIgIV-86 at 5 μg/ml, 10 μg/ml misfolded oxLDL, or gelatin (Sigma G1393, 2% solution in H2O or PBS, positive control for adhesion to ECs) were coated using 100 μl solutions, in six wells for each condition. Following incubation for 2 hours at 37° C. the solutions were discarded and the wells blocked for 1 hour at 37° C. with 100 μl/well of 1% polyvinyl-pyrrolidone (PVP, Sigma P5288) in PBS, filter (0.22 μm) sterilized. […] Subsequently, the block solution was discarded. Next, the plates were incubated with 40 μl RPMI 1640 medium (Gibco, 52400) and 10 μl of the potential inhibitor, i.e. recombinant human BiP at approximately 200 μg/ml final concentration. HUVECs were obtained by trypsinization. […] The absorbance at 490 nm was measured on a Versamax microplate reader at various time points.

T1 sequence (P11021 19-654): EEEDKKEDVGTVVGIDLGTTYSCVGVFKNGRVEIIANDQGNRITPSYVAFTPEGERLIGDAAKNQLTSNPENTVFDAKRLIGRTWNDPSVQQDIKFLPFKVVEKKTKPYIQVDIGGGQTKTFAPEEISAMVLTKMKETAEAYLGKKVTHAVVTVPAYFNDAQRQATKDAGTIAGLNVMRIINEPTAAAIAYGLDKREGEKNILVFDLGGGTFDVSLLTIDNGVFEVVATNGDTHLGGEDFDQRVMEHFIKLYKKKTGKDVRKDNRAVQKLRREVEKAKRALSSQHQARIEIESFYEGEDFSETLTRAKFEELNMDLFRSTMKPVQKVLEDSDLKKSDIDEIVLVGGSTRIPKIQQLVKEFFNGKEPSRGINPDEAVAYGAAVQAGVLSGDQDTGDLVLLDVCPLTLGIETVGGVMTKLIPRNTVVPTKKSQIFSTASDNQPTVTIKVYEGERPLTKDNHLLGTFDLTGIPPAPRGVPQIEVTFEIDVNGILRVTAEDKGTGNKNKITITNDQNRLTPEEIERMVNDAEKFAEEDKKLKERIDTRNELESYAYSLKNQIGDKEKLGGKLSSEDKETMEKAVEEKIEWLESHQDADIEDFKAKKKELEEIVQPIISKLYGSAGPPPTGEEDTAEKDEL

| Substance | Binding of concentration series of BiP to coated ligand (human BiP) | Activation of factor XII in plasma (conversion of S-2222) (factor XII in plasma) | Number of adhered HUVECs after preincubation of coated protein with BiP (HUVECs) |
| --- | --- | --- | --- |
| KRLEVDIDIKIRS [FP13, synthetic fibrin fragment comprising crossbeta structure] | has been established | stimulates the conversion of S-2222 | – |
| gelatin | – | – | hardly increase |
